Measured values published in article PMC8826744.

Biological target: recombinant furin, biotinylated (UniProt P09958)
Assay: BLI

Chain of recombinant furin, biotinylated (P09958 27-794): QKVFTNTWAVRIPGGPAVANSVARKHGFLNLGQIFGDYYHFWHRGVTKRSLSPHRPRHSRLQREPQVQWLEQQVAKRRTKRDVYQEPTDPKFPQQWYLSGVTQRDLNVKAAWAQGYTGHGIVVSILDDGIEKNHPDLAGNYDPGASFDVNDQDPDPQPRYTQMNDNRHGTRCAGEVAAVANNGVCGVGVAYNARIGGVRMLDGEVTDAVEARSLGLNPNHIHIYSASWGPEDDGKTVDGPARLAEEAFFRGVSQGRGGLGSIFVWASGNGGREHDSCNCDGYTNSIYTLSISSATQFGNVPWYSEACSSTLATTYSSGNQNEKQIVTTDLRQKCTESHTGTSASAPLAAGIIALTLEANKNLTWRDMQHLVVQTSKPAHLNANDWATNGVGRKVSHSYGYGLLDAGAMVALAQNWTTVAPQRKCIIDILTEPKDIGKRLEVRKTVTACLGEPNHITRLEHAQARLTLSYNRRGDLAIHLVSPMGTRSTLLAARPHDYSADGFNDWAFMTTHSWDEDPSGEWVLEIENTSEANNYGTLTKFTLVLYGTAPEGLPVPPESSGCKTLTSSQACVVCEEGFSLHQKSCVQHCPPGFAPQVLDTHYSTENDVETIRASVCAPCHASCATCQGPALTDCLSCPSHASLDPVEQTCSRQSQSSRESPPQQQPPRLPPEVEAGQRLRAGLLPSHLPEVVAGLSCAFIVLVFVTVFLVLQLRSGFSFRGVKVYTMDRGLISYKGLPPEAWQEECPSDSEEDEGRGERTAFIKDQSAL

## farletuzumab-FuG1 (antibody)
  fold reduction of koff against farletuzumab-cFuG1: 10 fold
